The values that follow are results of earlier work, collected in paper PMC4753134.

One data set has as its target EGFR (Homo sapiens) (UniProt P00533).
The next data set has as its target Met (Homo sapiens) (UniProt P08581).
UniProt P08581, sequence (P08581 25-932): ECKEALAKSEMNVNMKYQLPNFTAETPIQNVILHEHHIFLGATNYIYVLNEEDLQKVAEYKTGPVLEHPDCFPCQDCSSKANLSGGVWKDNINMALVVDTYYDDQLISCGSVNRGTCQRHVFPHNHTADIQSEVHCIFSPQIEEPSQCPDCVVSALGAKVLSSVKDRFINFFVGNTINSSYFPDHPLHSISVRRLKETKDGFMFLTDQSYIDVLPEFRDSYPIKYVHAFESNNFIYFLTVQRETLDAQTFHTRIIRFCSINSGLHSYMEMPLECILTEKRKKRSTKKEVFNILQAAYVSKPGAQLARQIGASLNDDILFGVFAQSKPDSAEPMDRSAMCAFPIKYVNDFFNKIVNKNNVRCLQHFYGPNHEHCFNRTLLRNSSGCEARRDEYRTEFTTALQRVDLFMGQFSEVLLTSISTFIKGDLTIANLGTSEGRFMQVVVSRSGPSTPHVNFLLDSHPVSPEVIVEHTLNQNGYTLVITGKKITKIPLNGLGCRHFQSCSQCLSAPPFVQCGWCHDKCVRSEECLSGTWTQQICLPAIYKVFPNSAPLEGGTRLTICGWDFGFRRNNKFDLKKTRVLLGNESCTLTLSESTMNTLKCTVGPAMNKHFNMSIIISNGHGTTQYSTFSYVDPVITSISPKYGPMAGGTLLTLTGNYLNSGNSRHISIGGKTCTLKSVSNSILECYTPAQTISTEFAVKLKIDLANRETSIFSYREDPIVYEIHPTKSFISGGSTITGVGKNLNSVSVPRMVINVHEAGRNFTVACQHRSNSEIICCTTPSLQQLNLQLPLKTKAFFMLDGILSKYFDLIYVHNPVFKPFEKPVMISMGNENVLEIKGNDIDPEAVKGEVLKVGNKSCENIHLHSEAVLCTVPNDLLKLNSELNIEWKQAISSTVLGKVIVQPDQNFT

Take decorin (from UniProt P07585): the Kd with EGFR (Homo sapiens) is 87 nM; in the data set with Met (Homo sapiens), 2 nM.
